From patent US4327178A, “Urinary kallikrein assay: specific substrates and assay method” (University of Miami, priority 1981, dated 1982)

Tested on: T1, N=C(N)NCCC[C@H](NC(=O)[C@H](Cc1ccccc1)NC(=O)[C@@H]1CCCN1)C(=O)NCc1ccccc1
T1 construct: dialyzed or gel-filtered human urine in the general A1 assay
Experiment: Km and Vmax of substrates with purified human urinary kallikrein (Lineweaver-Burk double reciprocal plot)
Format: biochemical
Settings: other: 62.5 ng purified enzyme, 0.05 M tris-HCl pH 9.5, 37° C., 15 minutes
Protocol: The double reciprocal plot method of H. Lineweaver and D. Burk (J.Am.Chem.Soc. 56, 658 (1934)) was used to estimate Km and Vmax for these substrates. Purified human urinary kallikrein prepared as described by Oza, N. B. and Ryan, J., supra, was used in this study. Reactions were conducted at 37° C. for 15 minutes with 62.5 ng of enzyme and the indicated amount of substrate, in 0.05 M tris-HCl pH 9.5. Reactions were terminated by the addition of a nine-fold excess of 0.1 N NaOH. The ^3 H-labeled product was separated from substrate by extraction with an equal volume (1 ml) of toluene. A 0.5 ml aliquot of the toluene phase was transferred to a scintillation vial containing a toluene-based scintillation fluid and counted. Results for H-ProPheArg-[^3 H]-benzylamide are shown in FIG. 1, and for H-ProPheArg-[^3 H]anilide in FIG. 2. The units of l/v were nmol^-1 min. Units of l/S were μmole^-1.liter.

human urinary kallikrein (Homo sapiens)
Km: 3.0 µM
Vmax: 0.88 mmol/min/mg
